The target in test [1] is human PD-1 on Jurkat Effector cells of the PD-1/PD-L1 blockade bioassay (Promega, Cat #J1255) (human, UniProt Q15116 25-288). Briefly: cell-based or functional assay.
The target of test [2] is T1, human PD-1 on Jurkat cells (Jurkat+hPD-1) (human, UniProt Q15116 21-185).
T1 construct: extracellular domain and a portion of the transmembrane domain, stably expressed on Jurkat cells
Briefly: flow cytometry on Jurkat cells expressing hPD-1. On the technique in general: In flow cytometry, cells or beads pass a laser one at a time.
Procedure: EC₅₀ values were calculated from the geometric mean fluorescent intensity (gMFI) across the titrated concentrations using GraphPad Prism 7 software.

Test [3] addresses T2, native human PD-1 on PMA/ionomycin-activated primary human T cells (human, UniProt Q15116 25-288).
T2 construct: whole, on cells; also called native hPD-1
Briefly: flow cytometry, activated human CD3+CD4+ T cells.
Procedure: (§1) The binding of anti-hPD-1 antibodies and anti-hPD-1-attenuated hIL-2 fusion proteins on activated primary T cells expressing hPD-1 was examined by flow cytometry. […] Cells were then stained with 1:20 dilution of Allophycocyanin-conjugated anti-human IgG Fc to detect bound antibody. To delineate immune subsets, a cocktail of surface markers included anti-human CD3, anti-CD4, and anti-CD8 antibodies was used. […] Cells were analyzed on the BD Fortessa (BD Biosciences), FlowJo software version 10 was used to gate on T cell subsets then calculate gMFI of the allophycocyanin signal. EC₅₀ values were calculated from the gMFI across the titrated concentrations using GraphPad Prism 7 software. To test the binding of anti-hPD-1-hIL-2 fusion proteins, cryopreserved CD3+ T cells were activated with PMA/ionomycin and flow cytometry binding was performed identically as described above.

The target in test [4] is T2, native human PD-1 on …. Briefly: flow cytometry, activated human CD3+CD8+ T cells.
Procedure: as §1
Test [5] has as its target T3, human PD-1 (amino acids 1-185) on transfected Jurkat cells (human, UniProt Q15116 21-185).
T3 construct: also called hPD-1; Jurkat+hPD-1 cell line
Kind of test: flow cytometry on Jurkat cells expressing hPD-1; no competitor.
Procedure: (§2) Briefly, Jurkat cells stably expressing hPD-1 (as described in Protocol A above) were washed and re-suspended in FACS buffer containing 1:50 dilution of human FcR Blocking reagent. Cells were incubated at 4° C. for 10 minutes and washed. […] Cells were washed and incubated with test antibodies or antibody-attenuated hIL-2 fusion proteins serially diluted six-fold for an 8-point curve in 100 μL volume for one hour at 4° C. To detect bound test anti-hPD-1 antibodies or anti-hPD-1-attenuated hIL-2 fusion proteins, cells were washed again and incubated with 1:40 dilution of Allophycocyanin-conjugated anti-human IgG Fc monoclonal antibody for 45 minutes on ice. Cells were washed and re-suspended in FACS buffer containing 1:1000 dilution of Sytox Green (Thermo Fisher). […] Flow cytometry was carried out on the BD Canto II, BD Celesta, or BD Fortessa (BD Biosciences) flow cytometers and gMFI was calculated using FlowJo software version 10. EC₅₀ values were calculated from the gMFI of the Allophycocyanin signal across the titrated concentrations using GraphPad Prism 7 software.

The target of test [6] is T3, human PD-1 (amino acids 1-185) on …. Briefly: flow cytometry, Jurkat+hPD-1 cells; competitor 10 µM anti-hPD-1 #1-mIgG2b-N297A.
Procedure: as §2
Test [7] has the same target. Kind of test: flow cytometry on Jurkat cells expressing hPD-1; cells pre-incubated with 10 µM anti-hPD-1 #1-mIgG2b-N297A.
Procedure: as §2
For test [8] the target is unchanged. Briefly: flow cytometry on Jurkat cells expressing hPD-1; cells pre-incubated with 10 µM anti-hPD-1 #2-mIgG2b-N297A.
Procedure: as §2
Test [9] shares this target. Kind of test: flow cytometry, Jurkat+hPD-1 cells.
Test [10] has the same target. Briefly: flow cytometry on Jurkat cells expressing hPD-1; no competitor. The source holds these as a separate data set.
Procedure: as §2
Test [11] shares this target. Briefly: flow cytometry on Jurkat cells expressing hPD-1; cells pre-incubated with 10 µM anti-hPD-1 #1-mIgG2b-N297A. This is another data set of the same source.
Procedure: as §2
Test [12] has the same target. Kind of test: flow cytometry on Jurkat cells expressing hPD-1; cells pre-incubated with 10 µM anti-hPD-1 #2-mIgG2b-N297A. This is another data set of the same source.
Procedure: as §2

The source of these data is patent US20240076343A1 (CEPHALON, published 2024).

T2 sequence (Q15116 25-288): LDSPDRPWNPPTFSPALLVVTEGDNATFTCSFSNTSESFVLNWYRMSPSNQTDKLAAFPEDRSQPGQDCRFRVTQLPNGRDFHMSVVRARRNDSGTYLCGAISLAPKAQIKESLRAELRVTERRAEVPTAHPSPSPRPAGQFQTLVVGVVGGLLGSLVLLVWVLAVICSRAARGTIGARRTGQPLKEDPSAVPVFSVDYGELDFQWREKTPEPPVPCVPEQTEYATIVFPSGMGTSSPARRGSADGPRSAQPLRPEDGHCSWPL
Sequence of human PD-1 on Jurkat Effector cells of the PD-1/PD-L1 blockade bioassay (Promega, Cat #J1255) (Q15116 25-288): as above
T3 sequence (Q15116 21-185 limits assumed): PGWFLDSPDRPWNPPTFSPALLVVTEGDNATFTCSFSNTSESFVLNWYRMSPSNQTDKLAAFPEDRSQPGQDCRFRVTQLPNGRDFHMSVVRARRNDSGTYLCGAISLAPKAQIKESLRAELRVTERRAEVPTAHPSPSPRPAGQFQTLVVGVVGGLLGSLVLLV
T1 sequence (Q15116 21-185 limits assumed): as above

B1: OMC.1.B6-hIgG4 (antibody, V domains shown)
VH: EVQLLESGGGLVQPGGSLRLSCAASGFTFSSNYMSWVRQAPGKGLEWVSAISSSGGTIFYADSVKGRFTISRDNSKNTLYLQMNSLRAEDTAVYYCAKHKWNAVYYDGMDVWGQGTTVTVSS
VL: QSVLTQPPSASGTPGQRVTISCSGSNSNIGRNLVNWYQQLPGTAPKLLIYTIDQRPSGVPDRFSGSKSGTSASLVISGLQSEDEADYYCAAWDGSLNAWVFGGGTKLTVLG
Take B1: in test [1], the “luminescence (RLU), PD-1/PD-L1 blockade bioassay” value (“luminescence (RLU)” for short) was roughly 3000 RLU.

B2: OMC.1.B6-hIgG4 (antibody, V domains shown)
VH: EVQLLESGGGLVQPGGSLRLSCAASGFTFSSNYMSWVRQAPGKGLEWVSAISSSGGTIFYADSVKGRFTISRDNSKNTLYLQMNSLRAEDTAVYYCAKHKWNAVYYDGMDVWGQGTTVTVSS
VL: QSVLTQPPSASGTPGQRVTISCSGSNSNIGRNLVNWYQQLPGTAPKLLIYTIDQRPSGVPDRFSGSKSGTSASLVISGLQSEDEADYYCAAWDGSLNAWVFGGGTKLTVLG
For the molecule B2, in [2], the EC50 came out at 7.42 nM.

B3: OMC.1.D6-hIgG4 (antibody, V domains shown)
VH: EVQLLESGGGLVQPGGSLRLSCAASGFTFSDYYMSWVRQAPGKGLEWVSAISSSGGTIFYADSVKGRFIISRDNSKNTLYLQMNSLRAEDTAVYYCAKHKWNDVYYDAMDVWGQGTTVTVSS
VL: QSVLTQPPSASGTPGQRVTISCSGSNSNIGRNLVNWYQQLPGTAPKLLIYTVDQRPSGVPDRFSGSKSGTSASLAISGLASEDEADYYCAAWDSSLNSWVFGGGTKLTVLG
B3 came in with an EC50 in test [2] of 16 nM.

B4: OMC.1.D6-hIgG4 (antibody, V domains shown)
VH: EVQLLESGGGLVQPGGSLRLSCAASGFTFSDYYMSWVRQAPGKGLEWVSAISSSGGTIFYADSVKGRFIISRDNSKNTLYLQMNSLRAEDTAVYYCAKHKWNDVYYDAMDVWGQGTTVTVSS
VL: QSVLTQPPSASGTPGQRVTISCSGSNSNIGRNLVNWYQQLPGTAPKLLIYTVDQRPSGVPDRFSGSKSGTSASLAISGLASEDEADYYCAAWDSSLNSWVFGGGTKLTVLG
On to B4, for which the “luminescence (RLU)” value in test [1] is roughly 3000 RLU.

B5: 1H9-hIgG4 (antibody, V domains shown)
VH: EVQLLESGGGLVQPGGSLRLSCVGSGFNLKDYCMTWVRQAPGKGLEWVSAIVYSGGSTYYADSVKGRFTISRDNSKNTLYLQMNSLRAEDTAVYYCAKYTRGSYFYDAMDVWGQGTTVTVSS
VL: EIVLTQSPGTLSLSPGERATLSCRASQSIGRSFLAWYQQKPGQAPRLLIYDASTRAADIPDRFSGSGSGTDFTLTINRLEPEDFAVYYCQQYYDWPPLTFGGGTKVEIKR
With B5, in [1], the “luminescence (RLU)” value is roughly 3000 RLU.

B6: H7-632-hIgG1-LAGA (antibody, V domains shown)
VH: EVQLLESGGGLVQPGGSLRLSCAASGFTFKSYAMHWVRQAPGKGLEWVSAIVYSGGSTYYADSVKGRFTISRDNSKNTLYLQMNSLRAEDTAVYYCAKYDRASYFYDAMDVWGQGTTVTVSS
VL: EIVLTQSPGTLSLSPGERATLSCRASQSISSSFLAWYQQKPGQAPRLLIYDASDRATGIPDRFSGSGSGTDFTLTISRLEPEDFAVYYCQQYYDWPPLSFGGGTKVEIKR
B6 had an EC50 in test [2] of 0.115 nM.

B7: OMC.2.C6-hIgG4 (antibody, V domains shown)
VH: EVQLLESGGGLVQPGGSLRLSCTASGFTFSSYEMQWVRQAPGKGLEWVLGITSSSSHIFYADSVKGRFTVSRDNSKNTLYLQMNSLRAEDTAVYYCTKDLNSYYGLDVWGQGTTVTVSS
VL: QSVMTQPPSASGTPGQRVTISCSGSTSNLGNNYVSWYQHLPGTAPKLLIYGNDQRPSGVPDRFSGSKSGTSASLAISGLQSDDEADYYCSSWDASLNVWVFGGGTKLTVLG
B7: in [1], the “luminescence (RLU)” value was roughly 3000 RLU.

B8: OMC.2.C6-hIgG4 (antibody, V domains shown)
VH: EVQLLESGGGLVQPGGSLRLSCTASGFTFSSYEMQWVRQAPGKGLEWVLGITSSSSHIFYADSVKGRFTVSRDNSKNTLYLQMNSLRAEDTAVYYCTKDLNSYYGLDVWGQGTTVTVSS
VL: QSVMTQPPSASGTPGQRVTISCSGSTSNLGNNYVSWYQHLPGTAPKLLIYGNDQRPSGVPDRFSGSKSGTSASLAISGLQSDDEADYYCSSWDASLNVWVFGGGTKLTVLG
In the case of B8, the 50% effective concentration (EC50) in test [2] stood at 11.5 nM.

B9: A2-hIgG4 (antibody, V domains shown)
VH: DVQLVESGGGLVQPGGSLRLSCAASGFTFDISAMSWVRQAPGKGLEWVSTISGSAYSTYYADSVKGRFTISRDNSKSTLYLQMNSLRAEDTAVYYCAREIFSDYWGLGTLVTVSS
VL: QSVLTQPPSASGTPGQRVTISCSGSTSNIGRESVYWYQQLPGTAPKLLIYSNVQRPSGAPNRFSGSKSGTSASLAISGLQSEDEADYYCGTWDDSLNGWVFGGGTKLTVLG
Turning to B9, the “luminescence (RLU)” value in [1] was roughly 3000 RLU. Also, the concentration giving a half-maximal response (EC50) in test [3] was 30 nM; in test [4] it was 22 nM. Further, the “EC50 (read off the curve)” value in [5] was roughly 6 nM; in test [7], roughly 10 nM; in test [8] it was roughly 20 nM. Besides, the “fold shift of the dose-titration curve” value in [6] is less than 10 fold.

B10: G12-hIgG4 (antibody, V domains shown)
VH: DSLVESGGGLVQPGGSLRLSCAASGFTFDISAMSWVRQAPGKGLEWVSTISGSAYSTYYADSVKGRFTISRDNSKSTLYLQMNSLRAEDTAVYYCAREIFSDYWGLGTLVTVSS
VL: QSVLTQPPSASGTPGQRVTISCSGSTSNIGRESVYWYQQLPGTAPKLLIYLNSQRPSGVPDRFSGSKSGTSASLAISGLQSEDVADYYCGTWDDSLNGWVFGGGTKLTVLG
B10 showed a concentration for a half-maximal effect (EC50) in test [2] of 5.36 nM.

B11: A2-hIgG4 (antibody, V domains shown)
VH: DVQLVESGGGLVQPGGSLRLSCAASGFTFDISAMSWVRQAPGKGLEWVSTISGSAYSTYYADSVKGRFTISRDNSKSTLYLQMNSLRAEDTAVYYCAREIFSDYWGLGTLVTVSS
VL: QSVLTQPPSASGTPGQRVTISCSGSTSNIGRESVYWYQQLPGTAPKLLIYSNVQRPSGAPNRFSGSKSGTSASLAISGLQSEDEADYYCGTWDDSLNGWVFGGGTKLTVLG
Consider B11, for which, in test [2], a half-maximal effect (EC50) was put at 5.97 nM.

B12: D12-hIgG4 (antibody, V domains shown)
VH: DVQLVESGGGLVQPGGSLRLSCAASGFTFDISAMSWVRQAPGKGLEWVSTISGSAYSTYYADSVKGRFTISRDNSKSTLYLQMNSLRAEDTAVYYCAREIFSDYWGLGTLVTVSS
VL: QSVLTQPPSASGTPGQRVTISCSGNTSNIGRESVYWYQQLPGTAPKLLIYSNVQRPSGVPDRFSGSKSGTSASLAISGLQSEDEADYYCGTWDDSLNGWVFGGGTKLTVLG
In test [2], B12 had a concentration for a half-maximal effect (EC50) of 9.67 nM.

B13: C51E6-5-hIgG4 (antibody, V domains shown)
VH: QVQLVQSGSELKKPGASVKVSCKASGYSLYGTSMHWVRQAPGQGLEWMGYISPFTGRATYAQGFTGRFVFSLDTSVSTAYLQISSLKAEDTAVYYCARDYDYRYYYAMDYWGQGTTVTVSS
VL: EIVLTQSPDFQSVTPKEKVTITCTASESVPPQFLHWYQQKPDQSPKLLIYASRERASGVPSRFSGSGSGTDFTLTINSLEAEDAATYYCHQFHRSPLTFGGGTKLEIKR
As to B13, the “luminescence (RLU)” value in test [1] was roughly 3000 RLU. The EC50 was 2 to 4 nM in test [9], 12 nM in [3] and 16 nM in [4]. The “EC50 (read off the curve)” value in test [10] was roughly 2 nM; in [11] it was roughly 9 nM; in test [12], roughly 8 nM. Also, the “fold shift of the dose-titration curve” value in [6] is less than 10 fold.

B14: C51E6-5-hIgG4 (antibody, V domains shown)
VH: QVQLVQSGSELKKPGASVKVSCKASGYSLYGTSMHWVRQAPGQGLEWMGYISPFTGRATYAQGFTGRFVFSLDTSVSTAYLQISSLKAEDTAVYYCARDYDYRYYYAMDYWGQGTTVTVSS
VL: EIVLTQSPDFQSVTPKEKVTITCTASESVPPQFLHWYQQKPDQSPKLLIYASRERASGVPSRFSGSGSGTDFTLTINSLEAEDAATYYCHQFHRSPLTFGGGTKLEIKR
In [2], B14 had an EC50 of 2.05 nM.

B15: 2H7-hIgG4 (antibody)
heavy: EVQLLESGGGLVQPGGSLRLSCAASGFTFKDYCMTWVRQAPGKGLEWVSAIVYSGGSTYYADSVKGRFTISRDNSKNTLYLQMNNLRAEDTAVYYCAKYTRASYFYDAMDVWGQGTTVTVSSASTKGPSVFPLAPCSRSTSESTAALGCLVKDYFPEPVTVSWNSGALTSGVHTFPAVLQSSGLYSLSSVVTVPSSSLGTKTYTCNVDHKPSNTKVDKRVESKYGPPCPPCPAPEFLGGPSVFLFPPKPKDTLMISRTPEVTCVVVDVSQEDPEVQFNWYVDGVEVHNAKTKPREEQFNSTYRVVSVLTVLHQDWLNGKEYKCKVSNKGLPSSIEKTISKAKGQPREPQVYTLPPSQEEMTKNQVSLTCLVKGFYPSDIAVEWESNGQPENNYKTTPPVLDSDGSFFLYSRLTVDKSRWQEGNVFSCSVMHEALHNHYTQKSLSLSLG
light: EIVLTQSPGTLSLSPGERATLSCRASQSIGKSFLAWYQQKPGQAPRLLIYDASTRAADIPARFSGSGSGTDFTLTISSLEPEDFAVYYCQQYYDWPPLSFGGGTKVEIKRTVAAPSVFIFPPSDEQLKSGTASVVCLLNNFYPREAKVQWKVDNALQSGNSQESVTEQDSKDSTYSLSSTLTLSKADYEKHKVYACEVTHQGLSSPVTKSFNRGEC
Regarding B15, the 50% effective concentration (EC50) in [2] is 0.277 nM.

One may read the EC50 as the concentration that produces a half-maximal response. As usually defined, the EC50 (read off the curve) is the concentration at which the effect is half-maximal. A low value points to greater potency.
